# B1: C213Y Prph2 (natural protein, UniProt P15499 1-346, looked up)
# chain: MALLKVKFDQKKRVKLAQGLWLMNWLSVLAGIVLFSLGLFLKIELRKRSEVMNNSESHFVPNSLIGVGVLSCVFNSLAGKICYDALDPAKYAKWKPWLKPYLAVCIFFNVILFLVALCCFLLRGSLESTLAYGLKNGMKYYRDTDTPGRCFMKKTIDMLQIEFKCCGNNGFRDWFEIQWISNRYLDFSSKEVKDRIKSNVDGRYLVDGVPFSYCNPSSPRPCIQYQLTNNSAHYSYDHQTEELNLWLRGCRAALLNYYSSLMNSMGVVTLLVWLFEVSITAGLRYLHTALESVSNPEDPECESEGWLLEKSVPETWKAFLESFKKLGKSNQVEAEGADAGPAPEAG
# modifications: N-linked glycan (the paper shows that the mutant is glycosylated; Asn229 is the site in Prph2)
# Target: the molecule itself
# Test: sucrose gradient velocity sedimentation
protein,measurement,value
B1,stoichiometry N,4
